Series [1] addresses SmMYC2b-His (Salvia miltiorrhiza, UniProt UPI0025AD73A7 1-607). Put plainly: EMSA; EMSA: 2 ug purified protein with 2 ug 3'-biotin probe, room temperature, 10 min; buffer, salt and pH not stated. The settings on record: protein: recombinant; tags: His (text: C-terminal, cleavable; pET32a vector, EcoRV/SalI); chain copies: 2; label: 3' biotin; blunt. On the technique in general: In EMSA bound probe runs differently from free probe, usually more slowly.

In series [2] the target is SmMYC2a-His (Salvia miltiorrhiza, UniProt A0A088SC56 1-602). The series is described as above. To be noted: protein: recombinant; tags: His (text: C-terminal, cleavable; pET32a vector, BamHI/HindIII); chain copies: 2; label: 3' biotin; blunt.
SmMYC2a-His, sequence (A0A088SC56 entry or part of it): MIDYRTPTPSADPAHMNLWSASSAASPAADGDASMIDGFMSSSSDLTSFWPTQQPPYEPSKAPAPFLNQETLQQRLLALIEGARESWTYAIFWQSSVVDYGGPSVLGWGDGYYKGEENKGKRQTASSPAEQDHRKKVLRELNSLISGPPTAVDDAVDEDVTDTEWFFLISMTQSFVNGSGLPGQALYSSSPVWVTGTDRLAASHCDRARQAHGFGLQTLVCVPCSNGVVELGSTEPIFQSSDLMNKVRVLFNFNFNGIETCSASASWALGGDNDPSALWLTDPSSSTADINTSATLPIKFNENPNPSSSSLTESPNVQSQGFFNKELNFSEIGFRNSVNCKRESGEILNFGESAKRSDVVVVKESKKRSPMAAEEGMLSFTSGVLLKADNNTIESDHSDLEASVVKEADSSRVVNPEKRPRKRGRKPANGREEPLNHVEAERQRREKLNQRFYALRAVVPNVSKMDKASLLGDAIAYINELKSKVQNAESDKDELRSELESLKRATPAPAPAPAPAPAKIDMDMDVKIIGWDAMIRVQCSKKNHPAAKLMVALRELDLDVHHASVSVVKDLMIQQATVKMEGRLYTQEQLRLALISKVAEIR

SmMYC2b-His, sequence (chain, as listed by the source): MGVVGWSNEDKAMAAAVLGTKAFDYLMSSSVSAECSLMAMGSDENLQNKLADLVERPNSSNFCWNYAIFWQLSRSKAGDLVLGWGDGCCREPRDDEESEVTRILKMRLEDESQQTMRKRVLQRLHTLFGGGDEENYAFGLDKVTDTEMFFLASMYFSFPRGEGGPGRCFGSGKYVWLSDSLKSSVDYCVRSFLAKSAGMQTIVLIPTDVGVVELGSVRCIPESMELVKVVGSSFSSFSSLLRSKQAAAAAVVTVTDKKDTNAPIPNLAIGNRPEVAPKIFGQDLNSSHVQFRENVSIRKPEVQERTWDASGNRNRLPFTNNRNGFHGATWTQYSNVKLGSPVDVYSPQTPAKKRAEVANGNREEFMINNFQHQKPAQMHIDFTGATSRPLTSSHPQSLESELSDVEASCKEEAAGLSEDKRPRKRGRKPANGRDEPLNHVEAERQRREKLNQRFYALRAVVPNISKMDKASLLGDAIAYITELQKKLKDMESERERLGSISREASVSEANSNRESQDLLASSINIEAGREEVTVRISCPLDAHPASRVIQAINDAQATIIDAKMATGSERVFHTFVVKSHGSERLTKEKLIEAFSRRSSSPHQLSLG

B1: Wild-type CYP98A14 (dsDNA)
DNA 1: ATTAGTGATTAACACGTGCACATTTATTAA
DNA 2: TTAATAAATGTGCACGTGTTAATCACTAAT
On to B1, for which the binding result in series [1] and in series [2] was “binds” each time.

B2: m-HCT6 (dsDNA)
DNA 1: AAGCCTAAAGCTTTTTTTGCTGCTAAACCT
DNA 2: AGGTTTAGCAGCAAAAAAAGCTTTAGGCTT
For the molecule B2, the binding result in series [2] was “no binding”.

B3: Wild-type HCT6 (dsDNA)
DNA 1: AAGCCTAAAGCTCACATGGCTGCTAAACCT
DNA 2: AGGTTTAGCAGCCATGTGAGCTTTAGGCTT
Regarding B3, in series [2], the binding result is “binds”.

The record behind these values is article PMC4780012, “SmMYC2a and SmMYC2b played similar but irreplaceable roles in regulating the biosynthesis of tanshinones and phenolic acids in Salvia miltiorrhiza”.
